Assay results as given in patent US20250092108A1 (Xencor, published 2025).

T1: IL-2 receptors (high-affinity IL-2Rαβγ or intermediate-affinity IL-2Rβγ) on PBMC lymphocytes (UniProt P01589 22-272; P14784 27-551; P31785 23-369, limits assumed)
T1 sequence (looked up) 1: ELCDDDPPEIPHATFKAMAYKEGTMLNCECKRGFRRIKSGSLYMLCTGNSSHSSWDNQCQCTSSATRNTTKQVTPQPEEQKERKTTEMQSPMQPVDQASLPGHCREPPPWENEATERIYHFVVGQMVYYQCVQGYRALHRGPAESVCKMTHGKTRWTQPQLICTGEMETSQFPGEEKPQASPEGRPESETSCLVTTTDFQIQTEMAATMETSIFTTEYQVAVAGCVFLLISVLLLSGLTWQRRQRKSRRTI
T1 sequence (looked up) 2: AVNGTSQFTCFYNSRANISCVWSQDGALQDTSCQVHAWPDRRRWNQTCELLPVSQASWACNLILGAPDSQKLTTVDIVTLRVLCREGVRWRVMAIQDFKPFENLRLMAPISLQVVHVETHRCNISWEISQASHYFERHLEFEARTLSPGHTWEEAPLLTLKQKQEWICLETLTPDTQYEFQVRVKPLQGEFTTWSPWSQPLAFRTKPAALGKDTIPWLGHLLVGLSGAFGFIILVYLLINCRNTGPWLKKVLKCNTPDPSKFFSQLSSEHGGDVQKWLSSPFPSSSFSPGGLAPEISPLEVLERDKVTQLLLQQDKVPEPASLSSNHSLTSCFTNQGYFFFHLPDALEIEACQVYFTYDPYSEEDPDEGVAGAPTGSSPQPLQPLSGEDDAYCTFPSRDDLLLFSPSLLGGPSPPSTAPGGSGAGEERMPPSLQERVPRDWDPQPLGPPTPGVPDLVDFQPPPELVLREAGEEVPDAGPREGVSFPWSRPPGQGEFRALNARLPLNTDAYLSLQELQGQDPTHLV
T1 sequence (looked up) 3: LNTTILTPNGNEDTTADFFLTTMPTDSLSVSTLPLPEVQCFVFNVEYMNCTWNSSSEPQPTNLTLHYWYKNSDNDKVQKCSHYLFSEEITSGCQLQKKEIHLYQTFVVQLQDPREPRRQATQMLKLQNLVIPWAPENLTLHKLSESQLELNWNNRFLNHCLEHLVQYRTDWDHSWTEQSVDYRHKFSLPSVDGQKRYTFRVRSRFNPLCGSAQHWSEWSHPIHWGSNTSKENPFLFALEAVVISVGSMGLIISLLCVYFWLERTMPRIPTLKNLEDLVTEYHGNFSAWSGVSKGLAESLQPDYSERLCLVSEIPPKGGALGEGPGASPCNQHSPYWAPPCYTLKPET


Biological target: T1, IL-2 receptors (high-affinity IL-2Rαβγ …)
Assay: cell-based or functional assay

| Binder | EC50, induction of STAT5 phosphorylation (in vitro potency) [nM] |
| --- | --- |
| XENP26105 (Fc fusion) chain 1: EPKSSDKTHTCPPCPAPPVAGPSVFLFPPKPKDTLMISRTPEVTCVVVDVKHEDPEVKFNWYVDGVEVHNAKTKPREEEYNSTYRVVSVLTVLHQDWLNGKEYKCKVSNKALPAPIEKTISKAKGQPREPQVYTLPPSREEMTKNQVSLTCDVSGFYPSDIAVEWESDGQPENNYKTTPPVLDSDGSFFLYSKLTVDKSRWEQGDVFSCSVMHEALHNHYTQKSLSLSPGK chain 2: APASSSTKKTQLQLEHLLLNLQMILNGINNYKNPKLRRMLTFKFYMPKKATELKHLQCLEEELKPLEEVLNLAQSKNFHLRPRDLISNINVIVLELKGSETTFMCEYADETATIVEFLNRWITFSQSIISTLTEPKSSDKTHTCPPCPAPPVAGPSVFLFPPKPKDTLMISRTPEVTCVVVDVKHEDPEVKFNWYVDGVEVHNAKTKPREEQYNSTYRVVSVLTVLHQDWLNGKEYKCKVSNKALPAPIEKTISKAKGQPREPQVYTLPPSREQMTKNQVKLTCLVKGFYPSDIAVEWESNGQPENNYKTTPPVLDSDGSFFLYSKLTVDKSRWQQGNVFSCSVMHEALHNHYTQKSLSLSPGK | 1 |
| XENP26109 (Fc fusion) chain 1: EPKSSDKTHTCPPCPAPPVAGPSVFLFPPKPKDTLMISRTPEVTCVVVDVKHEDPEVKFNWYVDGVEVHNAKTKPREEEYNSTYRVVSVLTVLHQDWLNGKEYKCKVSNKALPAPIEKTISKAKGQPREPQVYTLPPSREEMTKNQVSLTCDVSGFYPSDIAVEWESDGQPENNYKTTPPVLDSDGSFFLYSKLTVDKSRWEQGDVFSCSVMHEALHNHYTQKSLSLSPGK chain 2: APASSSTKKTQLQLEHLLLNLQMILNGINNYKNPKLTRMLTFKFYMPKKATELKHLQCLEEELKPLEEVLKLAQSKNFHLRPRDLISNINVIVLELKGSETTFMCEYADETATIVEFLNRWITFSQSIISTLTEPKSSDKTHTCPPCPAPPVAGPSVFLFPPKPKDTLMISRTPEVTCVVVDVKHEDPEVKFNWYVDGVEVHNAKTKPREEQYNSTYRVVSVLTVLHQDWLNGKEYKCKVSNKALPAPIEKTISKAKGQPREPQVYTLPPSREQMTKNQVKLTCLVKGFYPSDIAVEWESNGQPENNYKTTPPVLDSDGSFFLYSKLTVDKSRWQQGNVFSCSVMHEALHNHYTQKSLSLSPGK | 5 |
